Patent publication US7223731B2, “Thrombospondin-1 type 1 repeat polypeptides” (Beth Israel Deaconess Medical Center, Inc., priority 2000, dated 2007)

Legend:
[1] = tested on: TGFβ; assay: Assay for TGFβ activation (MLEC luciferase assay on B16F10 conditioned media); assay type: cell-based, murine; settings: for level of the active form of TGFβ as % of the total TGFβ: 5 μg/ml protein added, media conditioned by B16F10 melanoma cells, control 6.3%; for activation of TGFβ (in words): culture supernatant from B16F10 cells
Method: Human dermal microvessel endothelial cells (HDMEC) were isolated by the procedure of Richard et al., Exp. Cell Res. 240:1-6 (1998). The cells were cultured in Vitrogen precoated dishes, and maintained in EBM (Clonetics Corp, San Diego, Calif.) containing 20% fetal bovine serum (FBS), 1 mg/ml hydrocortisone acetate, 5×10^-5 M dibutyryl-cAMP, 200 U/ml penicillin, 100 U/ml streptomycin, 250 mg/ml amphotericin and 2-5 ng/ml VEGF. Murine melanoma B16F10 and murine Lewis lung carcinoma cells were obtained from the ATCC, and were maintained in Dulbecco's Modified Eagle Media (DMEM) supplemented with 10% FBS, […] penicillin, 50 U/ml streptomycin, and 2 mM glutamine (supplemented DMEM). Mink lung epithelial cells (MLECs-Clone 32) that have been stably transfected with an 800 bp fragment of the plasminogen activator inhibitor-1 (PAI-1) promoter fused to the firefly luciferase reporter gene were kindly provided by Dr. Daniel Rifkin (Abe, M. et al., Anal. Biochem. 216:276-284, 1994). The transfected MLECs were maintained in supplemented DMEM. B16F10 cells (2.5×10^5) were plated in a T25 flask and grown overnight in supplemented DMEM. The cells were rinsed once with 1.0 ml of serum-free DMEM and 2.5 ml of serum-free DMEM containing […] of the TSR, or […] recombinant protein were added. After an overnight incubation, conditioned media was collected and centrifuged at 12,000 rpm for 5 min to remove cellular debris. Undiluted media was used to determine the level of active TGFβ. The level of total TGFβ was determined by incubating the media at 80° C. for 10 min and diluting 1:5 in DMEM. One hundred microliters of conditioned media were added to wells of a 96-well plate containing 3×10^4 MLECs and the plates were incubated overnight. A standard curve was constructed by incubating 7.8 to 250 pg/ml of purified TGFβ with the […].) in DMEM. The media was removed and the cells were washed 3 times with cold PBS prior to the addition of […] of lysis buffer (PharMingen, San Diego, Calif.). Luciferase activity was measured using the Enhanced Luciferase Assay Kit PharMingen).

[2] = tested on: Lewis lung carcinoma; assay: Primary tumor growth assay, Lewis lung carcinoma; assay type: in vivo, C57BL/6 mice; settings: 2.5 mg/kg/day IP daily, treatment day 12
Method: The proteins for injection were mixed with Polymyxin B-Agarose (Sigma) for 30 minutes at room temperature to remove endotoxin. The endotoxin levels were less than 0.05 EU/mg as determined using the QCL-1000 assay kit (Biowhittaker, Walkersville, Md.). Proteins were filter-sterilized and the protein concentration was determined prior to injection. Five to eight week old C57BL/6 mice (Taconic, Germantown, N.Y.) were acclimated, caged in groups of four or less and their backs were shaved. Cultured B16F10 melanoma or Lewis lung carcinoma cells (1×10^6) were inoculated subcutaneously on the back of each mouse. Tumors were measured with a dial-caliper and the volumes were determined using the formula width^2×length×0.52. The treatment began 4 days after inoculation of the tumor cells. […] The experiments were terminated and mice sacrificed when the control mice began to die, usually at day 16 post-tumor cell injection.

[3] = tested on: B16F10 tumor cell; assay: B16F10 tumor cell proliferation in vitro; assay type: cell-based, murine

**Q.** Which results are given for “TSR2: recombinant protein that contains the second TSR of human TSP-1, amino acids 416–473, excludes DKRFK”?
**A.** level of the active form of TGFβ as % of the total TGFβ [1]: 4.8%; activation of TGFβ (in words) [1]: does not

B1: TSR2+RFK: recombinant longer version of the second type 1 repeat of human TSP-1 including the RFK sequence, amino acids 411–473 (protein, listed as Homo sapiens)
chain: DKRFKQDGGWSHWSPWSSCSVTCGDGVITRIRLCNSPSPQMNGKPCEGEARETKACKKDACPI
**Q.** What does the source list for B1?
**A.** level of the active form of TGFβ as % of the total TGFβ [1]: 30%; activation of TGFβ (in words) [1]: activates TGFβ; inhibition of Lewis lung carcinoma tumor growth [2]: 77%; B16F10 tumor cell proliferation in vitro (in words) [3]: inhibit
